Laboratory results as given in patent US9150655B2, “Anti-C-met antibody and methods of use thereof” (ACADEMIA SINICA, priority 2010, dated 2015).

Key:
[1] = biological target: T1, c-Met932-Fc protein (Homo sapiens, UniProt P08581); test: Binding kinetics of anti-c-Met scFv by SPR (BIAcore)
T1 construct: DNA fragments encoding amino acid residues 1 to 932 and 1 to 567 of c-Met were amplified by PCR; made in house; host or cells: 293T cells, transient transfection, protein G purification from supernatant
Method: The affinity and kinetics of anti-c-Met scFv were measured by SRP in BIAcore X (GE healthcare). In BIAcore flowcell, 30 μg/ml of c-MetF932-Fc protein was coupled to EDC- and NHS-activated CM5 sensor chip followed by blocking with ethanolamine according to manufacturer's directions. Associated and dissociated phases were monitored for 3 and 5 min, respectively, under continuous flow of 30 μl/min using scFv concentrations ranging 5 to 200 nM. Regeneration was performed by injection of regenerate buffer (0.2 M NaCl, 10 mM glycine, pH 2.7). To determine binding constants, the sensorgrams were fit globally to a sample 1:1 interaction model using BIAevaluation software (GE healthcare).
Binding kinetic constants (Kon and Koff) and affinity of each soluble scFv for c-Met932-Fc protein were measured by Surface Plasmon Resonance (SPR).
Kon and Koff were measured by SRP in a BIAcore using purified scFvs, and the Kd was calculated by BIAevaluation software.

[2] = biological target: T2, c-MetF932-Fc protein (Homo sapiens, UniProt P08581); test: Competitive ELISA: soluble scFv inhibit HGF binding to immobilized c-Met protein
T2 construct: DNA fragments encoding amino acid residues 1 to 932 and 1 to 567 of c-Met were amplified by PCR; made in house; host or cells: 293T cells, transient transfection, protein G purification from supernatant
Method: To monitor inhibition effect of scFv, we coated the c-MetF932-Fc protein on a 96-well plate and blocked nonspecific binder with 3% BSA in PBS. 1 nM human HGF (R&D) plus varying concentrations of anti-c-Met scFv or normal mouse IgG were applied to the wells. The amount of HGF bound to c-Met was determined using goat anti-human HGF (R&D), following incubation of HRP-labeled mouse anti-goat IgG (Jackson ImmunoResearch) and OPD substrate (Sigma) plus H2O2. The absorbance was measured with 490 nm using a microplate reader. Inhibition percentage was calculated by the following equation: [(the absorbance of HGF bound without competitor)−(the absorbance of HGF bound with competitor)]/(the absorbance of HGF bound without competitor)×100%.
To test whether the three anti-c-Met scFvs could inhibit HGF binding to c-Met, the human lung cancer cell line H1993 was chosen to undergo competition ELISA (Lutterbach B et al. (2007) Cancer Res 67:2081-2088). […] HGF binding to H1993 cells without competitors was considered 100%. H1993 is known to express a high level of c-Met. When H1993 cells were incubated with HGF in the presence of the phage clones, the binding of HGF to H1993 cells was diminished by more than 90% by the anti-c-Met scFv PC1. PC20 inhibited more than 50% of HGF binding to c-Met (FIG. 2, panel A). The competitive inhibition of HGF by different concentrations of soluble scFvs was also tested. Normal mouse IgG (NMIgG) was used as a negative control. HGF binding to immobilized c-Met protein without competitors was considered 100%.

[3] = biological target: T3, c-Met (Homo sapiens, UniProt P08581); test: HGF-induced c-Met phosphorylation in A549 cells (Western blot); assay type: cell-based; settings: A549 cells co-treated with HGF and S1 at 37° C. for 15 min; relative to cells without S1
T3 construct: endogenous in cells; host or cells: A549
Method: Since the anti-c-Met scFv S1 presented superiorly competitive capability, whether S1 would antagonize HGF to activate c-Met in cancer cells was examined. A549 cells were co-treated with HGF and S1 at 37° C. for 15 min. Total cell lysate was subjected to Western blotting using anti-tyrosine-phosphorylated c-Met antibody and an antibody against the c-Met β-chain (c-Met). Quantification of phosphorylated c-Met was based on luminescence intensity and normalized with total c-Met.

[4] = biological target: T4, endogenous c-Met in cancer cells (Homo sapiens, UniProt P08581); test: ELISA of scFv binding to human cancer cell lines; assay type: cell-based
T4 construct: endogenous in cells
Method: (§1) The binding activities of anti-c-Met scFvs to endogenous c-Met were analyzed in cancer cells by ELISA (FIG. 9, panel A). […] Normal mouse IgG was used as a control antibody. FACS analysis was performed to verify that […] anti-c-Met scFvs also bound VEGF-stimulated HUVECs. Anti-CD31 antibody and control scFv were used a positive and negative control, respectively (FIG. 9, panel B).

[5] = tested on: VEGF-stimulated HUVECs; test: FACS of scFv binding to VEGF-stimulated HUVECs; assay type: cell-based, human
Method: as §1

[6] = biological target: T5, endogenous c-Met on H460 cells (Homo sapiens, UniProt P08581); test: FACS of scFv binding to H460 and c-Met knockdown H460 cells; assay type: cell-based
T5 construct: endogenous in cells; host or cells: H460 and MET-KD H460
Method: To further confirm that the anti-c-Met scFv would bind specifically to endogenous c-Met on human cancer cells, H460 cells and c-Met knockdown H460 cells were stained with anti-c-Met scFv, either S1 or S20, and FACS analysis was carried out (FIG. 10, panel B).

[7] = biological target: T6, c-Met567-Fc protein (Homo sapiens, UniProt P08581); test: Epitope ELISA on c-Met932-Fc and c-Met567-Fc; assay type: binding; settings: immobilized recombinant proteins
T6 construct: DNA fragments encoding amino acid residues 1 to 932 and 1 to 567 of c-Met were amplified by PCR; made in house; host or cells: 293T cells, transient transfection, protein G purification from supernatant
Method: Therefore, binding epitopes of anti-c-Met scFvs localized within HGF binding domain of c-Met were investigated. The binding ability of anti-c-Met scFvs was examined for c-Met932-Fc protein including whole extracellular domain of c-Met, and c-Met567-Fc protein containing Sema and PSI domain, both of which have been defined as HGF binding regions (FIG. 2, panel C). The c-Met recombinant proteins were immobilized on titer wells, and incubated with anti-c-Met scFvs. Anti-c-Met polyclonal antibody and anti-E tag antibody was used as a positive and negative control, respectively. […] The binding intensity of S1 for c-Met932-Fc was similar to that for c-Met567-Fc.

[8] = purified scFv, c-MetF932-Fc on CM5 chip

T1 sequence (P08581 25-307): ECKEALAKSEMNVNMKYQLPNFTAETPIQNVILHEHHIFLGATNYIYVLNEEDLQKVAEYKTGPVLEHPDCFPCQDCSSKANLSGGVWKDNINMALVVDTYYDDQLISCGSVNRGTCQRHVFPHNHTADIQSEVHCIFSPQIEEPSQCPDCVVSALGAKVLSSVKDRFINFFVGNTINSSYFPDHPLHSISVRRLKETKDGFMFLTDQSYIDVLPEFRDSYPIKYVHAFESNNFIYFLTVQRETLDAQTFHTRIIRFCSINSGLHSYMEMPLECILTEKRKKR
T1 sequence (P08581 308-932): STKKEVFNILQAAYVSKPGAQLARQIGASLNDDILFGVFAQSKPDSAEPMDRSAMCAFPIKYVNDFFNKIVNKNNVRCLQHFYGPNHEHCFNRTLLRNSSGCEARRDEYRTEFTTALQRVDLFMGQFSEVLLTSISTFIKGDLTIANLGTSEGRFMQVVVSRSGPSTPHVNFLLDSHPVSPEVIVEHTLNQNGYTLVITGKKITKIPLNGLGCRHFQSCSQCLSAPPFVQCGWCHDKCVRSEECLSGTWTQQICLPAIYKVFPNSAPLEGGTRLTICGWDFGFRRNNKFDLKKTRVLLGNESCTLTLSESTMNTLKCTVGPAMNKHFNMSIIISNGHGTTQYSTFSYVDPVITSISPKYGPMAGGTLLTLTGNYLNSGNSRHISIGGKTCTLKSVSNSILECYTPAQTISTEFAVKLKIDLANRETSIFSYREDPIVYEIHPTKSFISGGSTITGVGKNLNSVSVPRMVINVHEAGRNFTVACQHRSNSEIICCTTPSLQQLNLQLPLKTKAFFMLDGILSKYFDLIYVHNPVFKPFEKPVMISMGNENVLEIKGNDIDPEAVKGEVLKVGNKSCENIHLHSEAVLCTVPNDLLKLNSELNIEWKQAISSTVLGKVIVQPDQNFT
T5 sequence (P08581 25-1390): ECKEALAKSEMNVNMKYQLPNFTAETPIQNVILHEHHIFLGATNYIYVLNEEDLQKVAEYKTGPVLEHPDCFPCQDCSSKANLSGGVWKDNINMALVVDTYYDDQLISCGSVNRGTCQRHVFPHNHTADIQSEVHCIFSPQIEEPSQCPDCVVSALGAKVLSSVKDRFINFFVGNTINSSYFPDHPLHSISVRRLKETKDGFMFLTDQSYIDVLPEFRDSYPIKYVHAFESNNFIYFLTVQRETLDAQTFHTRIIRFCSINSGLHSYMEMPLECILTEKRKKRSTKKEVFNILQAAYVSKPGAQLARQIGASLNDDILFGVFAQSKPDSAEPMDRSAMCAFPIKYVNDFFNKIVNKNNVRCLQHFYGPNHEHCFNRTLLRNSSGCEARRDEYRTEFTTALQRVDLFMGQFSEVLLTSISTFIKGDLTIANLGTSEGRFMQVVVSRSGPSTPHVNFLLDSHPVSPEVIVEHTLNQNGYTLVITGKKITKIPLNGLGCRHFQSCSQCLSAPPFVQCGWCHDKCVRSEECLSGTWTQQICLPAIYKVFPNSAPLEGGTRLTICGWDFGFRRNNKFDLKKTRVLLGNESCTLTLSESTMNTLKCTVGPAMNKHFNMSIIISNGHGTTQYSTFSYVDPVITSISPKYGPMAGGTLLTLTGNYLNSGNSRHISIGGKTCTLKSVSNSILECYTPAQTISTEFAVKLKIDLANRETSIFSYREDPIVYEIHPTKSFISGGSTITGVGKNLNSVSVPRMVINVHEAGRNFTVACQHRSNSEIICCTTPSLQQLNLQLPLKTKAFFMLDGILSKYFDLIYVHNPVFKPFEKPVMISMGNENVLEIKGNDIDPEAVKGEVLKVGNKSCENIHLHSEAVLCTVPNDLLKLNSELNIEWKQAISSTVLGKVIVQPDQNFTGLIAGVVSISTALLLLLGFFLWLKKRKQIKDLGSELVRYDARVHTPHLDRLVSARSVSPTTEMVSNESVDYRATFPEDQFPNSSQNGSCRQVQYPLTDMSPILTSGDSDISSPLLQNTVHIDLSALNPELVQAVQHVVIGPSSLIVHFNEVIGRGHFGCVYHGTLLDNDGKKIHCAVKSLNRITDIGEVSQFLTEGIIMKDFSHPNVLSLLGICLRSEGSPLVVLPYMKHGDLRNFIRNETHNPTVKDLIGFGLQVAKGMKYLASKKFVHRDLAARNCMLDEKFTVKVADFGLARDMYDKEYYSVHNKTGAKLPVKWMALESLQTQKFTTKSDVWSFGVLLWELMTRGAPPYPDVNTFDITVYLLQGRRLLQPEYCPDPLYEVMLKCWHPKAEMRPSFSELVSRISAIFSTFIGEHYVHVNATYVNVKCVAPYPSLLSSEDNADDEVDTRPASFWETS
T4 sequence (P08581 25-1390): as above
T2 sequence (P08581 25-307 limits assumed): as the sequence (P08581 25-307) above
T2 sequence (P08581 308-932 limits assumed): as the sequence (P08581 308-932) above
T3 sequence (P08581 25-1390): as the sequence (P08581 25-1390) above

B1: S1: soluble anti-c-Met scFv corresponding to phage clone PC1; VH/VL sequences in Table 1 (protein)
scFv: MAQVQLQQSGPGLVKPSQTLSLTCDISGDSVSSNSAAWNWIRQSPSRGLEWLGRTYYRSRWYNEYAVSVRGRISINAETSKNQFSLQLNSVTPEDTAIYYCARAGFCSGGNCYPGSEDAFDLWGQGTMVTVGGGGSGGGGSGGGGSDVVMTQSPPSLSVSVGDRVTITCRASQDITNDLNWYQQKPGKAPQLLIYHASELETGVPSRFSGSGFGTDFTLTISSLQPADIATYYCQQYDDLPLTFGGGTKVEIKR
modifications: left off: small tags and cut ends
Kd ([1]; purified scFv 5 to 200 nM, c-MetF932-Fc coupled to CM5 chip, Kd calculated by BIAevaluation software): 6.82 nM
Koff [1, 8]: 0.00134 s⁻¹
Kon [1, 8]: 215000 M⁻¹ s⁻¹
IC50 ([2]; 1 nM human HGF, immobilized c-Met protein, soluble scFv): 27.4 nM
Inhibition of binding activity of HGF to c-Met ([2]; different concentrations of soluble scFv): dose-dependently inhibited
Inhibition of HGF-induced c-Met phosphorylation [3]: 65.7%
Reactivity with A498, U2OS and NNM cells ([4]; A498, U2OS, NNM cells): did not react
Binding to human cancer cell lines ([4]; SKOV3, Mahlavu, SAS, PC3, MDA-MB-231, HCT116, Paca-2, NPC-TW04, H1993 cells, vs control antibody): found to bind
Binding to VEGF-stimulated HUVECs [5]: bound
Binding activity in c-Met knockdown H460 cells ([6]; c-Met knockdown H460): dramatically decreased
Binding to H460 cells ([6]; c-Met wildtype H460): able to bind
Binding to c-Met567-Fc compared to c-Met932-Fc [7]: similar
